This passage reports percent of Brd4 bound compared to wild type E2 and percent of wild type E2 binding results from US20060223055A1.

For assay [1], the target named is in vitro translated 35S-labeled Brd4-CTD (human) (UniProt O60885).
For assay [2], the target named is His-Xpress-SV40NLS-HBrd41047-1362 (human) (UniProt O60885).

In the case of “GST-tagged HPV16 E2 W134A (from UniProt P03120 1-365)”, in assay [1], the percent of Brd4 bound compared to wild type E2 was less than 20%.

Take “HPV16 E2 Y138A (pCMV4-16E2 mutant, expressed in C33A cells) (from UniProt P03120 1-365)”: in assay [2], the percent of wild type E2 binding was more than 40%.

Substance “HPV16 E2 Y178A (pCMV4-16E2 mutant, expressed in C33A cells) (from UniProt P03120 1-365)” gave a percent of wild type E2 binding in assay [2] of more than 40%.

As for “HPV16 E2 F121A (pCMV4-16E2 mutant, expressed in C33A cells) (from UniProt P03120 1-365)”, the percent of wild type E2 binding in assay [2] is more than 40%.

The substance “HPV16 E2 E39A (pCMV4-16E2 mutant, expressed in C33A cells) (from UniProt P03120 1-365)” registered a percent of wild type E2 binding in assay [2] of more than 40%.

“HPV16 E2 L79A (pCMV4-16E2 mutant, expressed in C33A cells) (from UniProt P03120 1-365)”: in assay [2], the percent of wild type E2 binding is more than 40%.

“HPV16 E2 T93A (pCMV4-16E2 mutant, expressed in C33A cells) (from UniProt P03120 1-365)” came in with a percent of wild type E2 binding in assay [2] of more than 40%.

Take “GST-tagged HPV16 E2 W33A (from UniProt P03120 1-365)”: the percent of Brd4 bound compared to wild type E2 in assay [1] was less than 20%.

“HPV16 E2 D122A (pCMV4-16E2 mutant, expressed in C33A cells) (from UniProt P03120 1-365)” registered a percent of wild type E2 binding in assay [2] of more than 40%.

“GST-tagged HPV16 E2 W92A (from UniProt P03120 1-365)”: the percent of Brd4 bound compared to wild type E2 in assay [1] was less than 20%.

In turn, “HPV16 E2 K68A (pCMV4-16E2 mutant, expressed in C33A cells) (from UniProt P03120 1-365)” had a percent of wild type E2 binding in assay [2] of more than 40%.

In assay [2], “HPV16 E2 R37A (pCMV4-16E2 mutant, expressed in C33A cells) (from UniProt P03120 1-365)” gave a percent of wild type E2 binding of less than 10%.

For “GST-tagged HPV16 E2 R37A (from UniProt P03120 1-365)”, the percent of Brd4 bound compared to wild type E2 in assay [1] was less than 20%.

As to “HPV16 E2 W33A (pCMV4-16E2 mutant, expressed in C33A cells) (from UniProt P03120 1-365)”, the percent of wild type E2 binding in assay [2] is less than 10%.

“HPV16 E2 W92A (pCMV4-16E2 mutant, expressed in C33A cells) (from UniProt P03120 1-365)”: the percent of wild type E2 binding in assay [2] was less than 10%.

“HPV16 E2 E90A (pCMV4-16E2 mutant, expressed in C33A cells) (from UniProt P03120 1-365)” showed a percent of wild type E2 binding in assay [2] of more than 40%.
